Target: activatory Fc gamma receptor III (FcγRIII), mouse (mouse) (UniProt P08508)
Assay: SPR

Chain of UniProt P08508 (P08508 31-261): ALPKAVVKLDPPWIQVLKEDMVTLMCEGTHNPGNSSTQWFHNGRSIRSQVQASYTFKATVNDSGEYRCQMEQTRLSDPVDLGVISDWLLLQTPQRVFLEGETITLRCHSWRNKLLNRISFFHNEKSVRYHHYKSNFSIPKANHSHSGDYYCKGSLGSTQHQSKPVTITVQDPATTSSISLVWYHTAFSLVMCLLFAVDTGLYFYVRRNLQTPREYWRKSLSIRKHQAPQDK

A/I ratio (affinity for activatory FcγRIII against inhibitory FcγRIIb): < 1
Substance: anti-CD25 clone PC-61 rat IgG1 (αCD25-r1) (antibody)

— publication PMC5437702
